Test results as given in patent US20180371076A1, “MATERNAL TH17 CELLS AND PSYCHIATRIC DISORDERS” (New York University, priority 2017, published 2018).

Experiments:
[1] = tested on: offspring of pregnant mice (MIA mouse model); assay: Ultrasonic vocalization (USV) assay in pups, MIA mouse model; format: in vivo
Experimental: Maternal Immune Activation. Mice were mated overnight and females were checked daily for the presence of seminal plugs, noted as embryonic day 0.5 (E0.5). On E12.5, pregnant female mice were weighed and injected with a single dose (20 mg/kg; i.p.) of poly(I:C) (Sigma Aldrich) or PBS vehicle. Each dam was returned to its cage and left undisturbed until the birth of its litter. All pups remained with the mother until weaning on postnatal day 21 (P21), at which time mice were group housed at maximum 5 per cage with same-sex littermates. For the IL-17 cytokine blockade experiment, monoclonal IL-17a blocking antibody (clone 50104; R&D) or isotype control antibody (IgG2a, clone 54447; R&D) was administered 6 h before maternal immune activation (FIG. 2) via i.p. route (500 μg/animal) or 2 days after maternal immune activation (FIG. 5) via i.p. route (500 μg/animal).
Ultrasonic vocalizations. On postnatal day 9, mice were removed from the nest and placed in a 15-cm diameter dish in a sound-attenuated chamber. Mouse ultrasonic vocalizations (USVs) were detected for 3 min using an UltraSoundGateCM16/CMPA microphone (AviSoft) in the chamber under stable temperature and light control, and recorded with SAS Prolab software (AviSoft). For certain USV tests, Ultravox software (Noldus information Technology, USA) was used. An amplitude filter was used to eliminate extraneous peripheral noise (i.e. HVAC). Due to the unreliability of automated USV scoring, all pup USVs were measured and confirmed manually by observers blind to the experimental conditions.
Maternal Immune Activation Mice were mated overnight and females were checked daily for the presence of seminal plugs, noted as embryonic day 0.5 (E0.5). On E12.5, pregnant female mice were weighed and injected with a single dose (20 mg/kg; i.p.) of poly(I:C) (Sigma Aldrich) or PBS vehicle. Each dam was returned to its cage and left undisturbed until the birth of its litter. All pups remained with the mother until weaning on postnatal day 21 (P21), at which time mice were group housed at maximum 5 per cage with same-sex littermates. For the IL-17 cytokine blockade experiment, monoclonal IL-17a blocking antibody (clone 50104; R&D) or isotype control antibody (IgG2a, clone 54447; R&D) were administered 6 h before maternal immune activation via i.p. route (500 μg/animal). For IL-6 cytokine injection into pregnant dams, carrier-free recombinant mouse IL-6 (R&D) was administered as a single dose (10 μg/animal; i.p.). For testing anti-IL17a therapeutic effects, IL-17a blocking antibody or isotype control antibody (as described above) was administered 2 days after maternal immune activation (500 μg/animal; i.p.).
Ultrasonic vocalizations On postnatal day 7-9, both male and female mice were removed from the nest and habituated to the testing room for 15 minutes (separate of dam). After the habituation period, mouse pups were placed in a clean 15 cm glass pyrex high wall dish. Mouse pup ultrasonic vocalizations (USVs) were then detected for 3 min using an UltraSoundGateCM16/CMPA microphone (AviSoft) in the sound attenuation chamber under stable temperature and light control (15 lux), and recorded with SAS Prolab software (AviSoft). USVs were measured between 33-125 kHz. USVs were scored as contiguous if gaps between vocalizations were <0.02 msec. For certain USV tests, Ultravox software (Noldus information Technology, USA) was used. An amplitude filter was used to eliminate extraneous peripheral noise (i.e. HVAC). Due to the unreliability of automated USV scoring, all pup USVs were measured and confirmed manually by observers blind to the experimental conditions.
Intraventricular cytokine injection At E14.5, uterine horns of pregnant mice were exposed by a caudal ventral midline incision (<2 cm). Each uterine horn was exteriorized carefully and each fetus was identified. […]

[2] = tested on: cortex of the fetal brain; assay: Cortical development: SATB2/TBR1/CTIP2 immunohistochemistry of fetal and adult offspring brain; format: in vivo, mouse
Experimental: Immunohistochemistry. Animals were transcardially perfused with 4% paraformaldehyde in PBS under Ketamine/xylazine anesthesia. The brains were removed and sectioned at 100-μm thickness with a Leica VT1000S vibratome (Leica, USA). Slices were permeabilized with blocking solution containing 0.4% Triton X-100, 2% goat serum, and 1% BSA in PBS for 1 hr at room temperature, and then incubated with anti-TBR1 (ab31940, Abcam), anti-SATB2 (ab51502, Abcam) and anti-CTIP2 (ab18465, Abcam) antibodies overnight at 4° C. The following day, slices were incubated with fluorescently conjugated secondary antibodies (Invitrogen, USA) for 1 h at room temperature, and mounted in vectashield mounting medium with DAPI (Vector laboratories). Images of stained brain slices were acquired using a confocal microscope (LSM710; Carl Zeiss) with a 20× objective lens; all image settings were kept constant.
Intraventricular cytokine injection At E14.5, uterine horns of pregnant mice were exposed by a caudal ventral midline incision (<2 cm). Each uterine horn was exteriorized carefully and each fetus was identified. Recombinant mouse IL-17a cytokine (R&D, 0.6 μL of 2 ng/μL), IL-6 (R&D, 0.6 μL of 10 ng/μL) or saline together with the dye Fast Green (Sigma, 0.3 mg/mL) was injected (3-4 μL) into the third ventricle of each embryo by a pulled micropipette. After injection of all embryos, the uterus was replaced within the abdomen and the cavity was lavaged with warm sterile saline.
Immunohistochemistry Fetal brains of male embryos were dissected and fixed with 4% paraformaldehyde in PBS for 6 h at 4° C. Adult brains of male offspring were perfused and fixed with 4% paraformaldehyde in PBS for overnight at 4° C. The brains were removed and sectioned at 50-μm thickness with a Leica VT1000S vibratome (Leica, USA). Slices were permeabilized with blocking solution containing 0.4% Triton X-100, 2% goat serum, and 1% BSA in PBS for 1 h at room temperature, and then incubated with anti-TBR1 (ab31940, Abcam), anti-SATB2 (ab51502, Abcam), and anti-CTIP2 (ab18465, Abcam) antibodies overnight at 4° C. The following day, slices were incubated with fluorescently conjugated secondary antibodies (Invitrogen, USA) for 1 h at room temperature, and mounted in vectashield mounting medium with DAPI (Vector laboratories). Images of stained brain slices were acquired using a confocal microscope (LSM710; Carl Zeiss) with a 20× objective lens; all image settings were kept constant. Spatial locations of the patches were registered based on their distance from the midline of the brain. These cortical malformations were quantified using cropped images containing the malformations, or the corresponding region in WT brains. The region of interest (300×300 μm^2) was divided into 10 equal laminar blocks representing different depths of the cortical plate. SATB2-, TBR1-, or […] cells were counted using Image J software. Signal intensity in each image was normalized relative to the total signal intensity.

[3] = injection into pregnant WT mothers (10 μg/animal; i.p.)

Molecule: poly(I:C)
- number of pup USV calls ([1]; poly(I:C)-injected mothers pretreated with control antibody, vs PBS-injected mothers): emitted more USV calls
- cortical thickness of the fetal brains at E18.5 ([2]; MIA (poly(I:C))): did not affect cortical thickness
- cortical cytoarchitecture at E18.5 ([2]; MIA (poly(I:C)) vs PBS): patch of disorganized cortical cytoarchitecture
- SATB2 and SATB2/TBR1 expression in fetal brain cortical plates at E14.5 and E18.5 ([2]; MIA (poly(I:C)) vs control): abnormal expression
- SATB2 expression at E14.5 ([2]; MIA (poly(I:C)) vs control): delayed expression of SATB2
- abnormal expression of SATB2, TBR1 and CTIP2 in adult offspring ([2]; MIA adult offspring (P60)): maintained

B1: recombinant IL-17a protein: Recombinant mouse IL-17a cytokine (R&D), injected into the fetal brain ventricle (protein, UniProt Q62386 26-158, looked up)
Interleukin-17A: AAIIPQSSACPNTEAKDFLQNVKVNLKVFNSLGAKVSSRRPSDYLNRSTSPWTLHRNEDPDRYPSVIWEAQCRHQRCVNAEGKLDHHMNSVLIQQEILVLKREPESCPFTFRVEKMLVGVGCTCVASIVRQAA
- pup USVs ([1]; injection into brains of fetuses from poly(I:C)-injected IL-6 KO mothers, vs PBS-injected controls): increased pup USVs
- USV phenotype ([1]; injection into the ventricles of IL-17Ra KO fetuses): nor enhanced USV phenotypes were observed
- USV phenotype ([1]; intra-ventricular injection at E14.5, compared with sham injection): enhanced USV phenotype
- cortical organization (SATB2, TBR1) at E18.5 ([2]; injected into the ventricles of the fetal brain at E14.5 in the absence of MIA): appearance of disorganized cortical patches
- thickness of the cortical plate at E18.5 ([2]; intra-ventricular injection at E14.5): thinned cortical plates at the medial but not lateral part of the brain

B2: recombinant IL-6: carrier-free recombinant mouse IL-6 (R&D) (protein, UniProt P08505 25-211, looked up)
Interleukin-6: FPTSQVRRGDFTEDTTPNRPVYTTSQVGGLITHVLWEIVEMRKELCNGNSDCMNNDDALAENNLKLPEIQRNDGCYQTGYNQEICLLKISSGLLEYHSYLEYMKNNLKDNKKDKARVLQRDTETLIHIFNQEVKDLHKIVLPTPISNALLTDKLESQKEWLRTKTIQFILKSLEEFLKVTLRSTRQT
- USV phenotype ([1]; injection into WT fetal brains at E14.5): nor enhanced USV phenotypes were observed
- USV phenotype in offspring [1, 3]: enhanced USV
- cortical phenotype in offspring [2, 3]: sufficient to produce MIA-associated behavioral (enhanced USV) and cortical phenotypes
